Laboratory results published in publication PMC5440646, “T Cell Costimulation by CD6 Is Dependent on Bivalent Binding of a GADS/SLP-76 Complex” (Molecular and Cellular Biology, 2017).
Where no end group is shown, it is not given here. [ ]: non-standard residue; d: D form. The star is where a group is joined. Biotin = O=C1N[C@H]2[C@H](CS[C@H]2CCCCC(=O)*)N1; pY = N[C@@H](Cc1ccc(OP(=O)(O)O)cc1)C(=O)O

What was measured:
Experiment in all cases: SPR; biotinylated short peptides immobilised at ~25 response units on streptavidin-coated CM5 chips, BIAcore 3000; SH2 domains injected at 10 μl/min at 37°C; equilibrium binding, 1:1 Langmuir
Conditions in all cases: both partners purified
[1] = molecular target: T1, GADS SH2 domain, His-tagged (UniProt O75791 58-149)
T1 construct: GRB2-related adaptor downstream of Shc (GADS), SH2 domain; In the popinF vector, provided by the Oxford Protein Production Facility
T1 sequence (looked up): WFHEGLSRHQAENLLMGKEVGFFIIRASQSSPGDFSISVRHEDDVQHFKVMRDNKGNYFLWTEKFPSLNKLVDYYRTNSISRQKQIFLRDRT

[2] = molecular target: T2, TSAd SH2 domain, His-tagged (UniProt Q9NP31 95-186)
T2 construct: T cell-specific adaptor protein (TSAd, SH2D2A), SH2 domain; In the popinF vector
T2 sequence (Q9NP31 95-186): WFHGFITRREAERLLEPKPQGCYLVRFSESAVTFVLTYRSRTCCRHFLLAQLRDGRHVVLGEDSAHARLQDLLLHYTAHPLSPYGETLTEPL

[3] = molecular target: T3, GRB2 SH2 domain, His-tagged (UniProt P62993 60-152)
T3 construct: In the popinF vector
T3 sequence (P62993 60-152): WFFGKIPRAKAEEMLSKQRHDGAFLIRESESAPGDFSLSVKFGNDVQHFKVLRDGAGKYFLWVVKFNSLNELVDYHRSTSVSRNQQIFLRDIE

B1: CD28 pYMNM peptide (biotin-LLHSDpYMNMTP) (peptide)
peptide: Biotin-LLHSD[pY]MNMTP
notes: CD28-derived peptide containing the YXN motif; also called phosphorylated CD28-derived peptide; source: synthetic peptide (Peptide Protein Research Ltd.)
In the case of B1, the Kd [1] is reported as 2000 to 3000 nM, the Kd [2] is reported as 74000 nM and the Kd [3] is reported as 3000 nM.

B2: CD6 pY629 peptide (biotin-SSGEWpYQNFQP) (peptide)
peptide: Biotin-SSGEW[pY]QNFQP
notes: CD6, human, cytoplasmic region around Y629; also called phosphorylated CD6 Y629 peptide; source: synthetic peptide (Peptide Protein Research Ltd.)
With B2 the Kd [1] was 1000 to 3000 nM, the Kd [2] was 26000 to 58000 nM and the Kd [3] was 2000 to 4000 nM.
